From paper PMC9496542

Key:
Experiment in all cases: NMR
Conditions in all cases: 298 K, 150 mM NaCl, 20 mM HEPES, 1 mM TCEP (working buffer), apo (no Ni(II)), intrinsically disordered, Cys394 reduced
[1] = target: His345 (UniProt position 345, …)
[2] = target: His355 (UniProt position 355, …)
[3] = target: His365 (UniProt position 365, …)
[4] = target: His371 (UniProt position 371, …)

B1: N-myc downstream-regulated gene 1 protein, C-terminal intrinsically disordered region (hNDRG1*C) (Homo sapiens) (protein)
chain: GMGYMPSASMTRLMRSRTASGSSVTSLDGTRSRSHTSEGTRSRSHTSEGTRSRSHTSEGAHLDITPNSGAAGNSAGPKSMEVSC
- pKa [1]: 6.65
- pKa [2]: 6.65
- pKa [3]: 6.72
- pKa [4]: 6.84
